The values that follow come from patent publication US20190359710A1.

Assay [1] deals with CD33 and CD123 together on double-positive human AML cells. Kind of assay: calibrated flow cytometry on MOLM13 cells (CD33/CD123 double-positive). On the technique in general: In flow cytometry, cells or beads pass a laser one at a time.
Assay [2] has the same target. Kind of assay: cell-based or functional assay.

B1: candidate triplebody hu[33-ds16-ds123RK] before polishing of the sequence (protein, not shown: small tags and cut ends)
chain: EVQLVESGGGLIQPGGSLRLSCAASGFPLTSYGVSWVRQPPGKGLEWLGVIWGDGSTNYHSALISRFTISRDNSKNTLYLQMNSLRAEDTAVYYCARDTYYPYYAMDYWGQGTTVTVSSGGGGSGGGGSGGGGSDIQMTQSPSSLSASVGDRVTITCKASQDVSTAVAWYQQKPGKAPKLLIYSASYRYTGVPSRFSGSGSGTDFTLTISSLQPEDFATYYCQQHYSTPLTFGQGTKLEIKRGGGGSGGGGSGGGGSGGGGSDIVLTQSPSSLSASVGDRVTITCKASQSVDFDGDSFMNWYQQKPGKAPKLLIYTTSNLESGVPSRFSASGSGTDFTLTISSLQPEDFATYYCQQSNEDPYTFGCGTKVEIKRGGGGSGGGGSGGGGSGGGGSEVQLVESGGGDVQPGGSLRLSCAFSGFSLRTSGMGVGWIRQAPGKCLEWVAHIWWDDDKRYNPSVKGRFTISKDTSSNTVYLQMNSLRAEDTAVYYCAQINPAWFAYWGQGTLVTVSSGGGGSGGGGSGGGGSGGGGSEVQLVESGGGLVQPGGSLRLSCAASGFTFTDYYMSWVRQAPGKCLEWLALIRSKADGYTTEYSASVKGRFTISRDDSKNSLYLQMNSLKTEDTAVYYCARDAAYYSYYSPEGAMDYWGQGTSVTVSSGGGGSGGGGSGGGGSDIQMTQSPSSLSASVGDRVTITCKASQNVDSAVAWYQQKPGKAPKALIYSASYRYSGVPSRFSGSGSGTDFTLTISSLQPEDFATYYCQQYYSTPWTFGCGTKVEIKR
For the molecule B1, the Kd (commonly a measure of binding affinity in units of concentration) in assay [1] was found to be 11 nM.

B2: single chain triplebody SPM-2, hu(33-ds16-ds123RK) (protein)
chain: EVQLVESGGGLIQPGGSLRLSCAASGFPLTSYGVSWVRQPPGKGLEWLGVIWGDGSTNYHSALISRFTISRDNSKNTLYLQMNSLRAEDTAVYYCARDTYYPYYAMDYWGQGTTVTVSSGGGGSGGGGSGGGGSDIQMTQSPSSLSASVGDRVTITCKASQDVSTAVAWYQQKPGKAPKLLIYSASYRYTGVPSRFSGSGSGTDFTLTISSLQPEDFATYYCQQHYSTPLTFGQGTKLEIKRGGGGSGGGGSGGGGSGGGGSDIVLTQSPSSLSASVGDRVTITCKASQSVDFDGDSFMNWYQQKPGKAPKLLIYTTSNLESGVPSRFSASGSGTDFTLTISSLQPEDFATYYCQQSNEDPYTFGCGTKVEIKRGGGGSGGGGSGGGGSGGGGSEVQLVESGGGDVQPGGSLRLSCAFSGFSLRTSGMGVGWIRQAPGKCLEWVAHIWWDDDKRYNPSVKGRFTISKDTSSNTVYLQMNSLRAEDTAVYYCAQINPAWFAYWGQGTLVTVSSGGGGSGGGGSGGGGSGGGGSEVQLVESGGGLVQPGGSLRLSCAASGFTFTDYYMSWVRQAPGKCLEWLALIRSKADGYTTEYSASVKGRFTISRDDSKNSLYLQMNSLKTEDTAVYYCARDAAYYSYYSPEGAMDYWGQGTSVTVSSGGGGSGGGGSGGGGSDIQMTQSPSSLSASVGDRVTITCKASQNVDSAVAWYQQKPGKAPKALIYSASYRYSGVPSRFSGSGSGTDFTLTISSLQPEDFATYYCQQYYSTPWTFGCGTKVEIKRGGGGSHHHHHH
As for B2, in assay [2], the % specific lysis of MOLM-13 cells at 1 nM SPM-2, 4 hr time point is 30.7%; the Biol. Activity EC50 [pM], redirected lysis (RDL), 3 h, E:T=10:1 (MNC:MOLM-13) is 14 pM; the EC50 (pM), RDL cytolysis of primary MNCs of AML patient P1 with LAK cells was determined as 131 pM; the EC50 (pM), RDL cytolysis of primary MNCs of AML patient P2 with LAK cells came out at 20 pM. Moreover, in assay [2], the EC50 (pM), RDL cytolysis of primary MNCs of AML patient P3 with LAK cells was 67 pM; the EC50 (pM), RDL cytolysis of primary MNCs of AML patient P4 with LAK cells worked out at 32 pM; the EC50 (pM), RDL cytolysis of primary MNCs of AML patient P5 with LAK cells is 242 pM; the EC50 (pM), RDL cytolysis of primary MNCs of AML patient P6 with LAK cells was found to be 155 pM. In assay [2], this molecule gave an EC50 (pM), RDL cytolysis of primary MNCs of AML patient P7 with LAK cells of 79 pM; an EC50 (pM), RDL cytolysis of primary MNCs of AML patient P8 with LAK cells of 133 pM; an EC50 (pM), RDL cytolysis of primary MNCs of AML patient P9 with LAK cells of 166 pM; an EC50 (pM), RDL cytolysis of primary MNCs of AML patient P10 with LAK cells of 51 pM. In assay [2], this molecule had an EC50 (pM), RDL cytolysis of primary MNCs of AML patient P11 with LAK cells of 1080 pM; an EC50 (pM), RDL cytolysis of primary MNCs of AML patient P12 with LAK cells of 38 pM; an EC50 (pM), RDL cytolysis of primary MNCs of AML patient P13 with LAK cells of 245 pM; an EC50 (pM), RDL cytolysis of primary MNCs of AML patient P14 with LAK cells of 229 pM. In assay [2], this molecule yielded an EC50 (pM), RDL cytolysis of primary MNCs of AML patient P15 with LAK cells of 177 pM; an EC50 (pM), RDL cytolysis of primary MNCs of AML patient P16 with LAK cells of 758 pM; an EC50 (pM), RDL cytolysis of primary MNCs of AML patient P17 with LAK cells of 125 pM; an EC50 (pM), RDL cytolysis of primary MNCs of AML patient P18 with LAK cells of 221 pM. In assay [2], this molecule had an EC50 (pM), RDL cytolysis of primary MNCs of AML patient P19 with LAK cells of 406 pM; an EC50 (pM), RDL cytolysis of primary MNCs of AML patient P20 with LAK cells of 251 pM; an EC50 (pM), RDL cytolysis of primary MNCs of AML patient P21 with LAK cells of 22 pM; an EC50 (pM), RDL cytolysis of primary MNCs of AML patient P22 with LAK cells of 225 pM. Besides, in assay [2], the EC50 (pM), RDL cytolysis of primary MNCs of AML patient P23 with LAK cells came to 476 pM; the EC50 (pM), RDL cytolysis of primary MNCs of AML patient P24 with LAK cells turned out to be 127 pM; the EC50 (pM), RDL cytolysis of primary MNCs of AML patient P25 with LAK cells turned out to be 541 pM; the EC50 (pM), RDL cytolysis of primary MNCs of AML patient P26 with LAK cells was 58 pM. For the same molecule, in assay [2], the EC50 (pM), RDL cytolysis of primary MNCs of AML patient P27 with LAK cells amounted to 10 pM; the EC50 (pM), RDL cytolysis of primary MNCs of AML patient P28 with LAK cells turned out to be 560 pM; the EC50 (pM), RDL cytolysis of primary MNCs of AML patient P29 with LAK cells was determined as 70 pM; the EC50 (pM), RDL lysis of CD34-enriched MNCs of AML patient P9 stood at 43 pM. Besides, in assay [2], the EC50 (pM), RDL lysis of CD34-enriched MNCs of AML patient P11 stood at 681 pM and the EC50, standard RDL assay, MOLM-13 targets, thawed LAK cells, 4 hr, MNC:Target 10:1 came to 0.024 nM.
